B1: Azoarcus group I ribozyme (parent)
chain: GUGCCUUGCGCCGGGAAACCACGCAAGGGAUGGUGUCAAAUUCGGCGAAACCUAAGCGCCCGCCCGGGCGUAUGGCAACGCCGAGCCAAGCUUCGGCGCCUGCGCCGAUGAAGGUGUAGAGACUAGACGGCACCCACCUAAGGCAAACGCUAUGGUGAAGGCAUAGUCCAGGGAGUGGCGAAAGUCACACAAACCGG

Variants of: B1
Assay: reverse-splicing fitness (ratio to wild type); higher = more active; in vitro selection; Mg2+ level not given
How it was run: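 An in vitro group I ribozyme library with randomized positions was T7-transcribed and gel-purified. In triplicate, 10 pmol RNA in EPPS pH 7.5 was reacted with 50 pmoles of a 30-nt RNA substrate for 1 h at 37 °C across several added MgCl2 levels (1–48 mM), then stopped with EDTA. Products were reverse transcribed from a substrate-complementary primer, PCR-amplified and sequenced (HiSeq 4000). Fitness is a variant's read proportion after selection over that before, normalised to wild type.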

Going from GUGCCUUGCGCCGGGAAACCACGCAAGGGAUGGUGUCAAAUUCGGCGAAACCUAAGCGCCCGCCCGGGCGUAUGGCAACGCUGAGCCAAGCUUCGGCGCCUGCGCCGAUGGAGGUGUAGAGACUAGACGGCACCCACCUAAGGCAAACGAUAUGGUGAAGGCAUAGUCAAGGGAGUGGCGAAAGUCACACAAACCGG to GUGCCUUGCGCCGGGAAACCACGCAAGGGAUGGUGUCAAAUUCGGCGAAACCUAAGCGCCCGCCCGGGCGUAUGGCAACGCUGAGCCAAGCUUCGGCGCCUGCGCCGAUGGAGGUGUAGAGACUAGACGGCACCCACCUAAGGCAAACGAUAUGGUGAAGGCAUAGUCAAGGGAGAGGCGAAAGUCACACAAACCGG, the reverse-splicing fitness rises from 0.00969 to 0.0183.

Going from GUGCCUUGCGCCGGGAAACCACGCAAGGGAUGGUGUCAAAUUCGGCGAAACCUAAGCGCCCGCCCGGGCGUAUGGCAACGCUGAGCCAAGCUUCGGCGCCUGCGCCGAUGGAGGUGUAGAGACUAGACGGCACCCACCUAAGGCAAACGAUAUGGUGAAGGCAUAGUCAAGGGAGCGGCGAAAGUCACACAAACCGG to GUGCCUUGCGCCGGGAAACCACGCAAGGGAUGGUGUCAAAUUCGGCGAAACCUAAGCGCCCGCCCGGGCGUAUGGCAACGCUGAGCCAAGCUUCGGCGCCUGCGCCGAUGGAGGUGUAGAGACUAGACGGCACCCACCUAAGGCAAACGAUAUGGUGAAGGCAUAGUCAAGGGAGGGGCGAAAGUCACACAAACCGG, the reverse-splicing fitness falls from 0.0195 to 0.00533.

Compared with GUGCCUUGCGCCGGGAAACCACGCAAGGGAUGGUGUCAAAUUCGGCGAAACCUAAGCGCCCGCCCGGGCGUAUGGCAACGCUGAGCCAAGCUUCGGCGCCUGCGCCGAUGGAGGUGUAGAGACUAGACGGCACCCACCUAAGGCAAACGAUAUGGUGAAGGCAUAGUCGAGGGAGUGGCGAAAGUCACACAAACCGG, GUGCCUUGCGCCGGGAAACCACGCAAGGGAUGGUGUCAAAUUCGGCGAAACCUAAGCGCCCGCCCGGGCGUAUGGCAACGCUGAGCCAAGCUUCGGCGCCUGCGCCGAUGGAGGUGUAGAGACUAGACGGCACCCACCUAAGGCAAACGAUAUGGUGAAGGCAUAGUCGAGGGAGAGGCGAAAGUCACACAAACCGG is higher in reverse-splicing fitness: 0.00918 for the first, 0.0207 for the second.

First: GUGCCUUGCGCCGGGAAACCACGCAAGGGAUGGUGUCAAAUUCGGCGAAACCUAAGCGCCCGCCCGGGCGUAUGGCAACGCUGAGCCAAGCUUCGGCGCCUGCGCCGAUGGAGGUGUAGAGACUAGACGGCACCCACCUAAGGCAAACGAUAUGGUGAAGGCAUAGUCGAGGGAGCGGCGAAAGUCACACAAACCGG
Second: GUGCCUUGCGCCGGGAAACCACGCAAGGGAUGGUGUCAAAUUCGGCGAAACCUAAGCGCCCGCCCGGGCGUAUGGCAACGCUGAGCCAAGCUUCGGCGCCUGCGCCGAUGGAGGUGUAGAGACUAGACGGCACCCACCUAAGGCAAACGAUAUGGUGAAGGCAUAGUCGAGGGAGGGGCGAAAGUCACACAAACCGG
The reverse-splicing fitness of the first is higher: 0.0199 for the first, 0.00673 for the second.

Compared with GUGCCUUGCGCCGGGAAACCACGCAAGGGAUGGUGUCAAAUUCGGCGAAACCUAAGCGCCCGCCCGGGCGUAUGGCAACGCUGAGCCAAGCUUCGGCGCCUGCGCCGAUGGAGGUGUAGAGACUAGACGGCACCCACCUAAGGCAAACGAUAUGGUGAAGGCAUAGUCUAGGGAGUGGCGAAAGUCACACAAACCGG, GUGCCUUGCGCCGGGAAACCACGCAAGGGAUGGUGUCAAAUUCGGCGAAACCUAAGCGCCCGCCCGGGCGUAUGGCAACGCUGAGCCAAGCUUCGGCGCCUGCGCCGAUGGAGGUGUAGAGACUAGACGGCACCCACCUAAGGCAAACGAUAUGGUGAAGGCAUAGUCUAGGGAGAGGCGAAAGUCACACAAACCGG is higher in reverse-splicing fitness: 0.00979 for the first, 0.0155 for the second.

Going from GUGCCUUGCGCCGGGAAACCACGCAAGGGAUGGUGUCAAAUUCGGCGAAACCUAAGCGCCCGCCCGGGCGUAUGGCAACGCUGAGCCAAGCUUCGGCGCCUGCGCCGAUGGAGGUGUAGAGACUAGACGGCACCCACCUAAGGCAAACGAUAUGGUGAAGGCAUAGUCUAGGGAGCGGCGAAAGUCACACAAACCGG to GUGCCUUGCGCCGGGAAACCACGCAAGGGAUGGUGUCAAAUUCGGCGAAACCUAAGCGCCCGCCCGGGCGUAUGGCAACGCUGAGCCAAGCUUCGGCGCCUGCGCCGAUGGAGGUGUAGAGACUAGACGGCACCCACCUAAGGCAAACGAUAUGGUGAAGGCAUAGUCUAGGGAGGGGCGAAAGUCACACAAACCGG, the reverse-splicing fitness falls from 0.0161 to 0.00684.

Going from GUGCCUUGCGCCGGGAAACCACGCAAGGGAUGGUGUCAAAUUCGGCGAAACCUAAGCGCCCGCCCGGGCGUAUGGCAACGCUGAGCCAAGCUUCGGCGCCUGCGCCGAUGGAGGUGUAGAGACUAGACGGCACCCACCUAAGGCAAACGAUAUGGUGAAGGCAUAGUCCAGGGAGAGGCGAAAGUCACACAAACCGG to GUGCCUUGCGCCGGGAAACCACGCAAGGGAUGGUGUCAAAUUCGGCGAAACCUAAGCGCCCGCCCGGGCGUAUGGCAACGCUGAGCCAAGCUUCGGCGCCUGCGCCGAUGGAGGUGUAGAGACUAGACGGCACCCACCUAAGGCAAACGAUAUGGUGAAGGCAUAGUCCAGGGAGCGGCGAAAGUCACACAAACCGG, the reverse-splicing fitness rises from 0.0272 to 0.0361.

Compared with GUGCCUUGCGCCGGGAAACCACGCAAGGGAUGGUGUCAAAUUCGGCGAAACCUAAGCGCCCGCCCGGGCGUAUGGCAACGCUGAGCCAAGCUUCGGCGCCUGCGCCGAUGGAGGUGUAGAGACUAGACGGCACCCACCUAAGGCAAACGAUAUGGUGAAGGCAUAGUCCAGGGAGGGGCGAAAGUCACACAAACCGG, GUGCCUUGCGCCGGGAAACCACGCAAGGGAUGGUGUCAAAUUCGGCGAAACCUAAGCGCCCGCCCGGGCGUAUGGCAACGCUGAGCCAAGCUUCGGCGCCUGCGCCGAUGGAGGUGUAGAGACUAGACGGCACCCACCUAAGGCAAACGGUAUGGUGAAGGCAUAGUCCAGGGAGUGGCGAAAGUCACACAAACCGG is higher in reverse-splicing fitness: 0.0117 for the first, 0.0267 for the second.

Compared with GUGCCUUGCGCCGGGAAACCACGCAAGGGAUGGUGUCAAAUUCGGCGAAACCUAAGCGCCCGCCCGGGCGUAUGGCAACGCUGAGCCAAGCUUCGGCGCCUGCGCCGAUGGAGGUGUAGAGACUAGACGGCACCCACCUAAGGCAAACGGUAUGGUGAAGGCAUAGUCAAGGGAGUGGCGAAAGUCACACAAACCGG, GUGCCUUGCGCCGGGAAACCACGCAAGGGAUGGUGUCAAAUUCGGCGAAACCUAAGCGCCCGCCCGGGCGUAUGGCAACGCUGAGCCAAGCUUCGGCGCCUGCGCCGAUGGAGGUGUAGAGACUAGACGGCACCCACCUAAGGCAAACGGUAUGGUGAAGGCAUAGUCAAGGGAGAGGCGAAAGUCACACAAACCGG is higher in reverse-splicing fitness: 0.00812 for the first, 0.00962 for the second.

Compared with GUGCCUUGCGCCGGGAAACCACGCAAGGGAUGGUGUCAAAUUCGGCGAAACCUAAGCGCCCGCCCGGGCGUAUGGCAACGCUGAGCCAAGCUUCGGCGCCUGCGCCGAUGGAGGUGUAGAGACUAGACGGCACCCACCUAAGGCAAACGGUAUGGUGAAGGCAUAGUCAAGGGAGCGGCGAAAGUCACACAAACCGG, GUGCCUUGCGCCGGGAAACCACGCAAGGGAUGGUGUCAAAUUCGGCGAAACCUAAGCGCCCGCCCGGGCGUAUGGCAACGCUGAGCCAAGCUUCGGCGCCUGCGCCGAUGGAGGUGUAGAGACUAGACGGCACCCACCUAAGGCAAACGGUAUGGUGAAGGCAUAGUCAAGGGAGGGGCGAAAGUCACACAAACCGG is lower in reverse-splicing fitness: 0.0121 for the first, 0.00562 for the second.

Compared with GUGCCUUGCGCCGGGAAACCACGCAAGGGAUGGUGUCAAAUUCGGCGAAACCUAAGCGCCCGCCCGGGCGUAUGGCAACGCUGAGCCAAGCUUCGGCGCCUGCGCCGAUGGAGGUGUAGAGACUAGACGGCACCCACCUAAGGCAAACGGUAUGGUGAAGGCAUAGUCGAGGGAGUGGCGAAAGUCACACAAACCGG, GUGCCUUGCGCCGGGAAACCACGCAAGGGAUGGUGUCAAAUUCGGCGAAACCUAAGCGCCCGCCCGGGCGUAUGGCAACGCUGAGCCAAGCUUCGGCGCCUGCGCCGAUGGAGGUGUAGAGACUAGACGGCACCCACCUAAGGCAAACGGUAUGGUGAAGGCAUAGUCGAGGGAGAGGCGAAAGUCACACAAACCGG is higher in reverse-splicing fitness: 0.00675 for the first, 0.0075 for the second.

Compared with GUGCCUUGCGCCGGGAAACCACGCAAGGGAUGGUGUCAAAUUCGGCGAAACCUAAGCGCCCGCCCGGGCGUAUGGCAACGCUGAGCCAAGCUUCGGCGCCUGCGCCGAUGGAGGUGUAGAGACUAGACGGCACCCACCUAAGGCAAACGGUAUGGUGAAGGCAUAGUCGAGGGAGCGGCGAAAGUCACACAAACCGG, GUGCCUUGCGCCGGGAAACCACGCAAGGGAUGGUGUCAAAUUCGGCGAAACCUAAGCGCCCGCCCGGGCGUAUGGCAACGCUGAGCCAAGCUUCGGCGCCUGCGCCGAUGGAGGUGUAGAGACUAGACGGCACCCACCUAAGGCAAACGGUAUGGUGAAGGCAUAGUCGAGGGAGGGGCGAAAGUCACACAAACCGG is higher in reverse-splicing fitness: 0.00418 for the first, 0.00525 for the second.

Going from GUGCCUUGCGCCGGGAAACCACGCAAGGGAUGGUGUCAAAUUCGGCGAAACCUAAGCGCCCGCCCGGGCGUAUGGCAACGCUGAGCCAAGCUUCGGCGCCUGCGCCGAUGGAGGUGUAGAGACUAGACGGCACCCACCUAAGGCAAACGGUAUGGUGAAGGCAUAGUCUAGGGAGUGGCGAAAGUCACACAAACCGG to GUGCCUUGCGCCGGGAAACCACGCAAGGGAUGGUGUCAAAUUCGGCGAAACCUAAGCGCCCGCCCGGGCGUAUGGCAACGCUGAGCCAAGCUUCGGCGCCUGCGCCGAUGGAGGUGUAGAGACUAGACGGCACCCACCUAAGGCAAACGGUAUGGUGAAGGCAUAGUCUAGGGAGAGGCGAAAGUCACACAAACCGG, the reverse-splicing fitness falls from 0.00811 to 0.00707.

Going from GUGCCUUGCGCCGGGAAACCACGCAAGGGAUGGUGUCAAAUUCGGCGAAACCUAAGCGCCCGCCCGGGCGUAUGGCAACGCUGAGCCAAGCUUCGGCGCCUGCGCCGAUGGAGGUGUAGAGACUAGACGGCACCCACCUAAGGCAAACGGUAUGGUGAAGGCAUAGUCUAGGGAGCGGCGAAAGUCACACAAACCGG to GUGCCUUGCGCCGGGAAACCACGCAAGGGAUGGUGUCAAAUUCGGCGAAACCUAAGCGCCCGCCCGGGCGUAUGGCAACGCUGAGCCAAGCUUCGGCGCCUGCGCCGAUGGAGGUGUAGAGACUAGACGGCACCCACCUAAGGCAAACGGUAUGGUGAAGGCAUAGUCUAGGGAGGGGCGAAAGUCACACAAACCGG, the reverse-splicing fitness falls from 0.0122 to 0.00511.

Compared with GUGCCUUGCGCCGGGAAACCACGCAAGGGAUGGUGUCAAAUUCGGCGAAACCUAAGCGCCCGCCCGGGCGUAUGGCAACGCUGAGCCAAGCUUCGGCGCCUGCGCCGAUGGAGGUGUAGAGACUAGACGGCACCCACCUAAGGCAAACGGUAUGGUGAAGGCAUAGUCCAGGGAGAGGCGAAAGUCACACAAACCGG, GUGCCUUGCGCCGGGAAACCACGCAAGGGAUGGUGUCAAAUUCGGCGAAACCUAAGCGCCCGCCCGGGCGUAUGGCAACGCUGAGCCAAGCUUCGGCGCCUGCGCCGAUGGAGGUGUAGAGACUAGACGGCACCCACCUAAGGCAAACGGUAUGGUGAAGGCAUAGUCCAGGGAGCGGCGAAAGUCACACAAACCGG is higher in reverse-splicing fitness: 0.00888 for the first, 0.0178 for the second.

Source: the RNAGym collection of RNA variant scans (doi:10.1093/molbev/msab373)
